Columns and labels:
[1] = Fluorescence polarization assay of binding to GD3 ganglioside-labeled liposomes; design: species or system bovine; details: for affinity for GD3 ganglioside relative to binding of a single benzoboroxole to Neu5Ac: compared with Ka of Table 1
Method: Liposomes were formed by transferring DOPC (dissolved in chloroform solution) and GD3 gangliosides (dissolved in 63:35:5 chloroform/methanol/water) to glass tubes and drying them under Ar (g) and then under vacuum. Lipids were re-suspended in 25 mM HEPES buffer, pH 7.0, containing NaCl (75 mM). The solution of lipids was mixed by vortexing for 2 min, and incubated at 37° C. for 1 h. For DOPC liposomes, DOPC was resuspended at a concentration of 5 mM. For GD3 ganglioside-labeled liposomes, DOPC and GD3 gangliosides were mixed at 3 mM and 2 mM concentrations, respectively. Large unilammelar vesicles were formed by extrusion through a 0.1-μm polycarbonate filter from Whatman (GE Healthcare, Piscataway, N.J.). This process produces a population of vesicles of near uniform size (˜100-150 nm diameter as measured by dynamic light scattering). A portion of the DOPC lipids before extrusion were aliquoted as a control.
Fluorescence polarization assays were performed using 50 nM BODIPY FL-labeled unmodified and benzoboroxole-boronated RNase A in black NBS 96-well plates (Corning Costar, Lowell, Mass.). These ribonucleases were incubated with DOPC liposomes (625 μM total lipid) or GD3 ganglioside-labeled liposomes (375 μM DOPC, 250 μM GD3 ganglioside=625 μM total lipid) in 25 mM HEPES buffer, pH 7.0, containing NaCl (75 mM) in the absence or presence of fructose (10 mM). In control wells, ribonucleases were incubated with non-extruded DOPC lipids. Fluorescence polarization at 470/535 nm with a G-factor of 1.257 was recorded after shaking the plate briefly and incubating at ambient temperature for 1 h. Control well polarization was subtracted from experimental well polarization for each ribonuclease. The assay was performed in triplicate.
The affinity of benzoboroxole-boronated RNase A for GD3 ganglioside-labeled liposomes was assessed by using serially diluted liposomes. GD3 ganglioside-labeled liposomes were serially diluted in 25 mM HEPES, pH 7.0, containing 75 mM with dilutions of 62.5 nM-1250 μM total lipid. […] Control DOPC liposomes (with no GD3 ganglioside) were likewise diluted in the same buffer, producing solutions of 62.5 nM-1250 μM total lipid. Liposomes were then incubated with 50 nM BODIPY FL-labeled benzoboroxole-boronated RNase A in the same buffer in a black NBS 96-well plate. Fluorescence polarization was recorded after shaking the plate briefly and incubating at ambient temperature for 35 min. Fluorescence polarization from GD3 ganglioside-labeled liposomes was subtracted from that from DOPC-only liposomes, thereby correcting for binding to DOPC and for changes in solution viscosity. The assay was performed in duplicate. The fraction of labeled ribonuclease bound for each sample well was calculated by dividing its polarization from the polarization of ribonucleases incubated with the highest concentration of GD3 ganglioside (set at 100% bound). The value of Kd was calculated by plotting the fraction bound against the concentration of GD3 ganglioside (see FIG. 21) and fitting the data to a binding isotherm as described in ref. [46] to give Kd=(54±11) μM.

[2] = test system: Lec-2 cells; test: Cellular internalization by flow cytometry; type: cell-based, Chinese hamster
Method: (§1) Cell lines were obtained from American Type Culture Collection (Manassas, Va.) and were maintained according to the recommended procedures. Cells were grown in a cell culture incubator at 37° C. under CO2 (5% v/v) in flat-bottomed culture flasks. Cell medium was supplemented with GIBCO fetal bovine serum (FBS) (10% v/v), penicillin (100 units/mL), and streptomycin (100 μg/mL) in the appropriate cellular medium as follows: Pro-5, MEM α+ribonucleosides+deoxyribonucleosides; Lec-2, MEM α-ribonucleosides-deoxyribonucleosides; and K562, RPMI 1640. Cells were counted by hemocytometry for dispensing into 12-well plates (Corning Costar, Lowell, Mass.) or 8-well chambered coverglass slides (Nuc Lab-Tek II, Thermo Scientific).
(§2) BODIPY-FL was excited with a 488 nm solid-state laser and the emission was collected with a 530/30 bandpass filter. To collect the most reproducible data, for every flow cytometry experiment, the sensitivity (voltage) of the photomultiplier tube was set for all data collections using mid-range Rainbow beads from Spherotech (Lake Forest, Ill.) to a predetermined fluorescence target value. At least 10,000 cellular events were acquired for each sample. Data were analyzed using FlowJo 8.1.3 (Treestar, Ashland, Oreg.).
(§3) The day prior to an experiment, Pro-5 and Lec-2 cells were plated in 12-well plates at 1×10^5 cells/well. The day of the experiment, the appropriate amount of fructose was dissolved into the cellular medium to obtain a final fructose concentration of 250 mM, and the medium was passed through a 0.45-μm syringe filter from Whatman (Piscataway, N.J.). Non-fructose-containing medium was filtered likewise. Stock solutions of fluorescently labeled ribonucleases were diluted into the cell culture to a final concentration of 5 μM. Ribonucleases were incubated with cells for 4 h. Cells were then rinsed with PBS (2×400 μL), removed from the cell culture plate with trypsin (400 μL, 0.05% (1×) with EDTA; Invitrogen, Carlsbad, Calif.), placed in flow cytometry tubes containing 80 μL of FBS, and incubated on ice until analyzed by flow cytometry. Final fluorescence values were divided by the percent fluorophore labeling of the ribonuclease to determine the corrected value of fluorescence. Experiments were run twice in triplicate unless otherwise indicated. Data is illustrated in FIG. 4A and FIG. 4C.

[3] = test system: Pro-5 cells; test: Cellular internalization by flow cytometry; type: cell-based, Chinese hamster
Method: as §1, §2, §3

[4] = test system: Pro-5 cells; test: Confocal microscopy of live cells; type: cell-based, Chinese hamster; details: 5 μM, 4 h
Method: as §1
Pro-5 cells were plated on Nunc Lab-tek II 8-well chambered coverglass 24 h before use and grown to 80% confluency. Cells were incubated with 5 μM BODIPY FL-labeled ribonucleases for 4 h. Cell nuclei were stained with Hoechst 33342 (Invitrogen, 2 μg/mL) for the final 15 min of incubation. Cells were then washed twice with PBS, suspended in PBS, and examined using a Nikon Eclipse C1 laser scanning confocal microscope. Results are illustrated in FIG. 4B.

[5] = 5 μM, 4 h, relative to unmodified RNase A

Kd ([1]; BODIPY FL-labeled protein 50 nM, 25 mM HEPES buffer, pH 7.0, NaCl 75 mM): 54 ± 11 µM | affinity for GD3 ganglioside relative to binding of a single benzoboroxole to Neu5Ac ([1]; listed as benzoboroxole-boronated protein): ~430 fold | affinity for GD3 ganglioside relative to binding of a single benzoboroxole to Neu5Ac ([1]; listed as boronated protein): ~440 fold | effect of boronation on affinity for the ganglioside ([1]; fluorescence polarization, absence of fructose, versus unmodified RNase A): increased the affinity | effect of fructose on the increased affinity for the ganglioside ([1]; fluorescence polarization, fructose 10 mM): abrogated
B1: benzoboroxole-boronated RNase A: RNase A with 5-amino-2-hydroxymethylphenylboronic acid conjugated to protein carboxyl groups by carbodiimide condensation (conjugate, UniProt P61823 27-150, looked up)
Ribonuclease pancreatic: KETAAAKFERQHMDSSTSAASSSNYCNQMMKSRNLTKDRCKPVNTFVHESLADVQAVCSQKNVACKNGQTNCYQSYSTMSITDCRETGSSKYPNCAYKTTQANKHIIVACEGNPYVPVHFDASV
modifications: benzoboroxole conjugated to carboxyl groups
notes: RNase A with 5-amino-2-hydroxymethylphenylboronic acid conjugated to protein carboxyl groups by carbodiimide condensation
increase in cellular uptake [2, 5]: 4- to 5 fold | effect of fructose on enhancement of cellular uptake ([2]; fructose 0.25 M): eliminated | increase in cellular uptake [3, 5]: 4- to 5 fold | effect of fructose on enhancement of cellular uptake ([3]; fructose 0.25 M): eliminated | intracellular staining pattern [4]: punctate staining

Source: patent US9732101B2, “Bioreversible boronates for delivery of molecules into cells” (WISCONSIN ALUMNI RESEARCH FOUNDATION, priority 2012, dated 2017)
